Assay results taken from patent US20220289857A1 (Kyowa Kirin, published 2022).
Residue numbers refer to the chain shown, from its start.

Tests used:
[1] = target: T1, mouse Fn14 (full length) on transfected 293F cells (mouse, UniProt Q9CR75 28-129); test: flow cytometry, hybridoma supernatant on 293F cells transfected with mouse Fn14, detected with anti-mouse IgG PE
T1 sequence: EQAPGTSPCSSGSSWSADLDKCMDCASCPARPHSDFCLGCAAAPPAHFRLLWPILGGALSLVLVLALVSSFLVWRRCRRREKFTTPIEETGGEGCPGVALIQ
Protocol: FIG. 1 depicts binding of anti-Fn14 hybridoma supernatants to human and mouse Fn14 transfected cells. […] Hybridoma supernatant binding was detected using anti-mouse IgG PE.
Specifically, the binding activity of hybridoma culture supernatants or purified antibodies to Fn14-expressing cells was evaluated by flow cytometry (FCM). The cell lines evaluated by FCM were Fn14-transfected human embryonic kidney 293F cells (ThermoFisher, cat# R79007) and two cell lines endogenously expressing Fn14, human kidney-derived HK2 cells (ATCC, cat# CRL-2190) and rat kidney-derived NRK-52E cells (Japanese Collection of Research Bioresources Cell Bank (JCRB), cat# IF050480). For FCM analysis, Fn14-expressing cells were harvested using 0.25% trypsin-EDTA (Nacalai Tesque), washed with PBS, and resuspended in SM (Staining Medium: PBS containing 2% FBS, 1 mM EDTA, 0.05% sodium azide). Cells were then seeded in a 96-well plate at 1 ×10⁵ cells per well. Hybridoma supernatant or purified antibody (1 μg/mL final concentration) was added and the cells were incubated at 4° C. for 60 minutes. Cells were then washed with SM, resuspended in goat F(ab′)2 anti-mouse IgG-PE (Southern Biotech Inc.), diluted 1:500 in SM and incubated at 4° C. for 60 minutes. […] Fluorescence intensity was measured by FCM (BD Biosciences, FACS CantoII) and the data were analyzed using FlowJo software (Tomy Digital Biology Co., Ltd.).

[2] = target: T2, human Fn14 (full length) on cells (human, UniProt Q9NP84 28-129); test: flow cytometry on HK2 cells (endogenous human Fn14), purified antibody 1 µg/mL, detected with anti-mouse IgG PE
T2 construct: Transfected 293F cells, or endogenous on HK2, HRMC, A375, HaCaT, primary keratinocytes and dermal fibroblasts; also called hFn14; TNFRSF12A
T2 sequence: T1 sequence with S7A, S11R, P29R, H47P, V62T, L63F, A66G, V68L, S70G, G97A
Protocol: (§1) Primary antibodies were used at a concentration of 1 μg/mL and binding was detected using anti-mouse IgG PE.
(§2) Specifically, the binding activity of hybridoma culture supernatants or purified antibodies to Fn14-expressing cells was evaluated by flow cytometry (FCM). The cell lines evaluated by FCM were Fn14-transfected human embryonic kidney 293F cells (ThermoFisher, cat# R79007) and two cell lines endogenously expressing Fn14, human kidney-derived HK2 cells (ATCC, cat# CRL-2190) and rat kidney-derived NRK-52E cells (Japanese Collection of Research Bioresources Cell Bank (JCRB), cat# IF050480). For FCM analysis, Fn14-expressing cells were harvested using 0.25% trypsin-EDTA (Nacalai Tesque), washed with PBS, and resuspended in SM (Staining Medium: PBS containing 2% FBS, 1 mM EDTA, 0.05% sodium azide). Cells were then seeded in a 96-well plate at 1 ×10⁵ cells per well. Hybridoma supernatant or purified antibody (1 μg/mL final concentration) was added and the cells were incubated at 4° C. for 60 minutes. Cells were then washed with SM, resuspended in goat F(ab′)2 anti-mouse IgG-PE (Southern Biotech Inc.), diluted 1:500 in SM and incubated at 4° C. for 60 minutes. Cells were washed with SM and finally resuspended in 50 μL of SM. Fluorescence intensity was measured by FCM (BD Biosciences, FACS CantoII) and the data were analyzed using FlowJo software (Tomy Digital Biology Co., Ltd.).

[3] = target: T3, rat Fn14, endogenous on NRK-52E cells (rat, UniProt Q9CR75 28-129 (mouse entry)); test: flow cytometry on NRK-52E cells (endogenous rat Fn14), purified antibody 1 µg/mL, detected with anti-mouse IgG PE
T3 construct: Endogenous protein of rat kidney cells; also called NRK52E-A15/Luc cells
Protocol: as §1, §2

Measured: binding result

B1: KO42d mouse monoclonal antibody (hybridoma-derived) (antibody, V domains shown)
VH: EVQLLQSGPELVKPVASVKMSCKASGYTFTDYNIHWVKQSHGKSLEWIGYINPNNGVTGYNQKFRGKATLTVNRSSNTAYMDLRSLTSEDSAVYYCTRRYGDYVHAMDCWGQGTSVTVSS
VL: DIQMTQSPSSLSASLGERVSLTCRASQDIGSRLNWLQQEPDGTIKRLIYATSSLDSGVPKRFSGSRSGSDYSLTISSLESEDFVDYYCLQYASSPYTFGGGTKLEIK
notes: Hybridoma supernatant or purified antibody from an Fn14 knockout mouse; native mouse IgG, kappa
binds: [1] | [2] | [3]
